Reference: article PMC8218332 (Cell, 2021)

B1: mAb 278 (antibody, V domains shown)
VH: QVQLVQSGAEVKKPGASVKVSCKASGYIFIRYGISWVRQAPGQGLEWMGWISANNGYTNYAQKLQGRVTMTTDTSTSTAYMELRSLRSDDTAVYYCARDGGILTGYLDYFDHWGQGTLVTVSS
VL: DIQMTQSPSSLSASVGDRLTITCRASQSIASYLNWYQQKPGKAPKLLIYAASSLQSGVPSRFSGSGSGTDFTLTISSLQPEDFATYHCQQSYSTLGITFGPGTKVDIK
notes: copies: 2 + 2
B2: mAb 222 (antibody, V domains shown)
VH: EVQLVESGGGLIQPGGSLRLSCAASGLTVSSNYMSWVRQAPGKGLEWVSVIYSGGSTFYADSVKGRFTISRDNSKNTLYLQMNSLGAEDTAVYYCARGEGSPGNWFDPWGQGTLVTVSS
VL: DVVMTQSPGTLSLSPGERATLSCRASQSVPSSYLAWYQQKPGQAPRLLIYGASTRATGIPDRFSGSGSGTDFTLTISRLEPEDFAVYYCQHYDTSPRFGGGTKVDIK
notes: copies: 2 + 2
B3: mAb 316 (antibody, V domains shown)
VH: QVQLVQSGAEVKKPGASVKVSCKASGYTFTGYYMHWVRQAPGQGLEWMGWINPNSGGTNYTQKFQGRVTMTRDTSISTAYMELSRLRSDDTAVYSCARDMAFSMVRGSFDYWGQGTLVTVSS
VL: QAVLTQPPSASGSPGQSVTISCTGTSSDVGGYNYVSWYQQHPGKAPKLMIYEVSKRPSGVPDRFSGSKSGNTASLTVSGLQAEDEADYYCSSYAGSNHWVFGGGTKLTVL
notes: copies: 2 + 2
B4: mAb 88 (antibody, V domains shown)
VH: QLQLQESGPGLVKPSQTLSLTCTVSGGSISSGSYNWTWIRQPAGKGLEWIGRIYNSGSTNYNPSLKSRVTISVDTSKNQLSLKVRSVTAADTAVYYCARHCSGGTCYPKYYYGMDVWGQGTTVTVSS
VL: QSALTQPPSVSEAPRQRVTISCSGSSSNIGNNAVNWYQQFPGKAPKLLIYYDDLLPSGVSDRFSGSKSGTSASLAISGVQSEDEADYYCAAWDDSLNVVVFGGGTKLTVL
notes: copies: 2 + 2
B5: REGN10987 (antibody, V domains shown)
VH: QVQLVESGGGVVQPGRSLRLSCAASGFTFSNYAMYWVRQAPGKGLEWVAVISYDGSNKYYADSVKGRFTISRDNSKNTLYLQMNSLRTEDTAVYYCASGSDYGDYLLVYWGQGTLVTVSS
VL: QSALTQPASVSGSPGQSITISCTGTSSDVGGYNYVSWYQQHPGKAPKLMIYDVSKRPSGVSNRFSGSKSGNTASLTISGLQSEDEADYYCNSLTSISTWVFGGGTKLTVL
notes: source: provided by AstraZeneca; copies: 2 + 2

biological target: T1, His-tagged SARS-CoV-2 RBD T478K (SARS-CoV-2, Wuhan-Hu-1 RBD with T478K, T478K); assay: BLI; settings: both partners purified
T1 construct: not shown: His6, N-terminal, kept

Binder	Kd
B1	1500 pM
B2	200 pM
B3	690 pM
B4	2400 pM
B5	350 pM
